Assay [1] concerns the target T1, phosphatidylserine decarboxylase (PSD) (Homo sapiens, UniProt Q9UG56).
T1 construct: Purified recombinant protein (full length) of human phosphatidylserine decarboxylase (PSD); His tag (N); purchased Acris-OriGene; host or cells: E. coli
T1 sequence (Q9UG56 53-409): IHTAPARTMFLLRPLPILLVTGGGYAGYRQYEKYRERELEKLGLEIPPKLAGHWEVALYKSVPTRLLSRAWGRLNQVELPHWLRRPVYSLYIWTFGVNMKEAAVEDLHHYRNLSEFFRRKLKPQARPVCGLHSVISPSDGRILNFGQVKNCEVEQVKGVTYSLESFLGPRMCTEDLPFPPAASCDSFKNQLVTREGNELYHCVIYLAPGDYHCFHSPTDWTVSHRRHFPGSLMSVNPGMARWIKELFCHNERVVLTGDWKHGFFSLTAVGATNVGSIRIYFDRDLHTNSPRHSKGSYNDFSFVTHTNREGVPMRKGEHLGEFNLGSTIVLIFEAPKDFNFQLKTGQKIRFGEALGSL
The assay can be described thus: MST interaction of purified SMAC with purified PSD. Format: binding. Particulars: SMAC 1 μM, PSD 78-625 nM, 30 min at 37° C., read-out: dissociation constant (Kd) of PSD interaction with SMAC. As to the method: (A) Representative IF images for SMAC and PSD colocalization in A549 cells. Scale bars represent 10, 2.5 μm, as indicated. (B) PLA assay showing direct interaction between SMAC and PSD in A549 cells (scale bar represent 10 μm). Immunoblot (C) and quantitative analysis cells (D) of PSD and SMAC expression levels relative to WI-38 (n=3). PSD activity (n=6) (E) and PE levels (n=6) (F) were analyzed in the indicated cell lines. (G) Purified PSD and SMAC used in this study. (H) PSD interaction with SMAC analyzed using the MST method (n=4). Purified SMAC was fluorescently labelled with the NanoTemper BLUE protein-labelling kit. SMAC (1 μM) was incubated with purified PISD (78-625 nM) for 30 min at 37° C., then thermophoresis was measured as described in the Materials and Methods section hereinbelow. […] (I) Inhibition of PSD activity by SMAC, as measured using the DSB-3 method (n=4). Results are the mean±SEM. *P≤0.05; **P≤0.01; ***P≤0.001; NS, nonsignificant.
(§1) Human recombinant SMAC (10339-H08E) was produced by Sino Biologicals (Wayne, PA, USA). […]
MST analysis was performed using a NanoTemper Monolith NT.115 apparatus as described earlier (Wienken C J, et al., 2010. Nat Commun 1, 100). […] After a 30-min incubation, 8 μl of the samples were loaded into a glass capillary (Monolith NT Capillaries), and thermophoresis was analyzed (LED 20%, IR laser 20%).

Assay [2] addresses T1, phosphatidylserine decarboxylase (PSD). The experiment in a line: PSD activity inhibition, DSB-3 method. The following applies: read-out: IC50 of SMAC inhibiting PSD activity. The format is biochemical. The procedure:
PE content in the lipid samples was measured as described previously (Choi J Y, et al. 2018. J Biol Chem 293, 1493-1503). Briefly, solvent was evaporated from the lipid samples under nitrogen gas, and samples were re-suspended in 0.8 mM Triton X-100. Sample aliquots were added to 96-well plates containing (50 μl) reaction mixture (80 mM NaCl, 2 mM K2HPO4, pH 7.4), and borate buffer (12.5 μl) (100 mM boric acid, 75 mM NaCl, 25 mM sodium tetraborate, pH 9). After mixing, 12.5 μl of 100 μM DSB-3, in 10 mM K2HPO4 (pH 7.4), were added and incubated for 2 h in the dark with shaking (100 rpm). Fluorescence was measured using excitation λex=403 nm and emission λem=508 nm. A calibration curve was obtained using PE (Biovision, CA) as a standard.
To determine PSD activity, purified enzyme (0.2-0.4 μM) or crude cell lysate (0.25-0.5 μg of protein) was incubated with PS (50 μM) for 45 min at 30° C. in the dark with shaking under the conditions described above for PE determination. PSD activity was measured by determining the PE produced as described above, except that the signal obtained in the absence of substrate PS (representing endogenous PE) was subtracted from the signal obtained in the presence of PS.
as §1

B1: SMAC: Human recombinant SMAC (10339-H08E) produced by Sino Biologicals (protein)
chain: AVPIAQKSEPHSLSSEALMRRAVSLVTDSTSTFLSQTTYALIEAITEYTKAVYTLTSLYRQYTSLLGKMNSEEEDEVWQVIIGARAEMTSKHQEYLKLETTWMTAVGLSEMAAEAAYQTGADQASITARNHIQLVKLQVEEVHQLSRKAETKLAEAQIEELRQKTQEEGEERAESEQEAYLRED
One may read the Kd as a measure of binding affinity in units of concentration. For orientation: IC50 means the concentration that inhibits the measured activity by half. Regarding B1, the Kd in assay [1] came out at 246 nM. Besides, the IC50 in assay [2] was determined as 400 nM.

These data come from patent US20250051409A1, “MODULATORS OF PHOSPHATIDYLSERlNE DECARBOXYLASE AND USE THEREOF” (THE NATIONAL INSTITUTE FOR BIOTECHNOLOGY IN THE NEGEV LTD., priority 2021, published 2025).
